From US20070036786A1 (published 2007) come the findings set out here.

For the assay, the target named is T1, soluble human CD16A (sCD16A) (human, UniProt P08637 17-203).
T1 construct: CD16A truncated just prior to the transmembrane region, expressed in HEK-293; The last seven residues come from vector pCDNA3.1; also called soluble form of human CD16A
In words: ELISA, captured sCD16A. As to the method:
The plate was washed and dilutions of recombinant antibodies starting at 0.5 μg/ml in PBS-T-BSA were then added and incubated for 1 hr at room temp. Binding of recombinant antibodies to the captured sCD16A was then measured using an anti-human IgG-HRP conjugate and TMB substrate. After stopping color development using dilute sulfuric acid, the plate was read at 450 nm.

T1 sequence (P08637 other isoform, or with tags, fused parts or gaps limits assumed): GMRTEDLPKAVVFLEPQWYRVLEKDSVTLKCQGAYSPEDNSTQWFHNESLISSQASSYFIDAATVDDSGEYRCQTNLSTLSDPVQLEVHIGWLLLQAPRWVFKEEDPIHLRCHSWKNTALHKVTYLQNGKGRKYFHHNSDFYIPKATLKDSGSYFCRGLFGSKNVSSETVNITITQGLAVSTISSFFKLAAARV

B1: hu3G8VH-1/hu3G8VL-1 (antibody, human IgG1, kappa)
heavy: not shown
light: DIVMTQSPDSLAVSLGERATINCKASQSVDFDGDSFMNWYQQKPGQPPKLLIYTTSNLESGVPDRFSGSGSGTDFTLTISSLQAEDVAVYYCQQSNEDPYTFGQGTKLEIKRTVAAPSVFIFPPSDEQLKSGTASVVCLLNNFYPREAKVQWKVDNALQSGNSQESVTEQDSKDSTYSLSSTLTLSKADYEKHKVYACEVTHQGLSSPVTKSFNRGEC
notes: Heavy chain Hu3G8VH-1G1, light chain Hu3G8VL-1K; also called Hu3G8-1.1
Take B1: the binding result is “binds”.

B2: hu3G8VH-20/hu3G8VL-1 (antibody)
VH: QVTLRESGPALVKPTQTLTLTCTFSGFSLSTSGVGVGWIRQPPGKALEWLAHIWWDDDKRYSPSLKSRLTISKDTSKNQVVLTMTNMDPVDTATYYCARINPAWFAYWGQGTLVTVSS
light: DIVMTQSPDSLAVSLGERATINCKASQSVDFDGDSFMNWYQQKPGQPPKLLIYTTSNLESGVPDRFSGSGSGTDFTLTISSLQAEDVAVYYCQQSNEDPYTFGQGTKLEIKRTVAAPSVFIFPPSDEQLKSGTASVVCLLNNFYPREAKVQWKVDNALQSGNSQESVTEQDSKDSTYSLSSTLTLSKADYEKHKVYACEVTHQGLSSPVTKSFNRGEC
notes: VH fused to human Cγ1 constant region
Regarding B2, the binding result is on record as “binds”.

B3: hu3G8VH-3/hu3G8VL-1 (antibody)
VH: QVTLRESGPALVKPTQTLTLTCTFSGFSLRTSGMGVGWIRQPPGKALEWLAHIWWDDDKRYNPALKSRLTISKDTSKNQVVLTMTNMDPVDTATYYCARINPAWFAYWGQGTLVTVSS
light: DIVMTQSPDSLAVSLGERATINCKASQSVDFDGDSFMNWYQQKPGQPPKLLIYTTSNLESGVPDRFSGSGSGTDFTLTISSLQAEDVAVYYCQQSNEDPYTFGQGTKLEIKRTVAAPSVFIFPPSDEQLKSGTASVVCLLNNFYPREAKVQWKVDNALQSGNSQESVTEQDSKDSTYSLSSTLTLSKADYEKHKVYACEVTHQGLSSPVTKSFNRGEC
notes: as for B2
B3: the binding result is recorded as “binds”.

B4: hu3G8VH-2/hu3G8VL-1 (antibody)
VH: QVTLKESGPALVKPTQTLTLTCTFSGFSLSTSGMGVGWIRQPPGKALEWLAHIWWDDDKRYNPALKSRLTISKDTSKNQVVLTMTNMDPVDTATYYCARINPAWFAYWGQGTLVTVSS
light: DIVMTQSPDSLAVSLGERATINCKASQSVDFDGDSFMNWYQQKPGQPPKLLIYTTSNLESGVPDRFSGSGSGTDFTLTISSLQAEDVAVYYCQQSNEDPYTFGQGTKLEIKRTVAAPSVFIFPPSDEQLKSGTASVVCLLNNFYPREAKVQWKVDNALQSGNSQESVTEQDSKDSTYSLSSTLTLSKADYEKHKVYACEVTHQGLSSPVTKSFNRGEC
notes: as for B2
Turning to B4, the binding result was “binds”.

B5: hu3G8VH-12/hu3G8VL-1 (antibody)
VH: QVTLRESGPALVKPTQTLTLTCTFSGFSLSTSGMGVGWIRQPPGKALEWLAHIWWDDDKRYSPSLKSRLTISKDTSKNQVVLTMTNMDPVDTATYYCARINPAWFAYWGQGTLVTVSS
light: DIVMTQSPDSLAVSLGERATINCKASQSVDFDGDSFMNWYQQKPGQPPKLLIYTTSNLESGVPDRFSGSGSGTDFTLTISSLQAEDVAVYYCQQSNEDPYTFGQGTKLEIKRTVAAPSVFIFPPSDEQLKSGTASVVCLLNNFYPREAKVQWKVDNALQSGNSQESVTEQDSKDSTYSLSSTLTLSKADYEKHKVYACEVTHQGLSSPVTKSFNRGEC
notes: as for B2
Turning to B5, the binding result is “binds”.

B6: hu3G8VH-19/hu3G8VL-1 (antibody)
VH: QVTLRESGPALVKPTQTLTLTCTFSGFSLSTSGMGVGWIRQPPGKALEWLAHIWWDDDKRYNPALKSRLTISKDTSKNQVVLTMTNMDPVDTATYYCAQINPAYFAYWGQGTLVTVSS
light: DIVMTQSPDSLAVSLGERATINCKASQSVDFDGDSFMNWYQQKPGQPPKLLIYTTSNLESGVPDRFSGSGSGTDFTLTISSLQAEDVAVYYCQQSNEDPYTFGQGTKLEIKRTVAAPSVFIFPPSDEQLKSGTASVVCLLNNFYPREAKVQWKVDNALQSGNSQESVTEQDSKDSTYSLSSTLTLSKADYEKHKVYACEVTHQGLSSPVTKSFNRGEC
notes: as for B2
Regarding B6, the binding result is on record as “binds”.

B7: hu3G8VH-8/hu3G8VL-1 (antibody)
VH: QVTLRESGPALVKPTQTLTLTCTFSGFSLSTSGMGVGWIRQPPGKALEWLAHIWWDDDKRYNPALKSRLTISKDTSKNQVVLTMTNMDPVDTATYYCARINPAYFAYWGQGTLVTVSS
light: DIVMTQSPDSLAVSLGERATINCKASQSVDFDGDSFMNWYQQKPGQPPKLLIYTTSNLESGVPDRFSGSGSGTDFTLTISSLQAEDVAVYYCQQSNEDPYTFGQGTKLEIKRTVAAPSVFIFPPSDEQLKSGTASVVCLLNNFYPREAKVQWKVDNALQSGNSQESVTEQDSKDSTYSLSSTLTLSKADYEKHKVYACEVTHQGLSSPVTKSFNRGEC
notes: as for B2
Turning to B7, the binding result was “binds”.

B8: hu3G8VH-23/hu3G8VL-1 (antibody)
VH: QVTLRESGPALVKPTQTLTLTCTFSGFSLSTSGVGVGWIRQPPGKALEWLAHIWWDDDKRYSPSLKSRLTISKDTSKNQVVLTMTNMDPVDTATYYCAKINPAYFAYWGQGTLVTVSS
light: DIVMTQSPDSLAVSLGERATINCKASQSVDFDGDSFMNWYQQKPGQPPKLLIYTTSNLESGVPDRFSGSGSGTDFTLTISSLQAEDVAVYYCQQSNEDPYTFGQGTKLEIKRTVAAPSVFIFPPSDEQLKSGTASVVCLLNNFYPREAKVQWKVDNALQSGNSQESVTEQDSKDSTYSLSSTLTLSKADYEKHKVYACEVTHQGLSSPVTKSFNRGEC
notes: as for B2
With B8, the binding result is reported as “binds”.

B9: hu3G8VH-4/hu3G8VL-1 (antibody)
VH: QVTLRESGPALVKPTQTLTLTCTFSGFSLSTSGMGVGWIRQPPGKALEWLAHIWWDDDKRYNPALKSRLTISKDTSKNQVVLTMTNMDPVDTATYYCAQINPAWFDYWGQGTLVTVSS
light: DIVMTQSPDSLAVSLGERATINCKASQSVDFDGDSFMNWYQQKPGQPPKLLIYTTSNLESGVPDRFSGSGSGTDFTLTISSLQAEDVAVYYCQQSNEDPYTFGQGTKLEIKRTVAAPSVFIFPPSDEQLKSGTASVVCLLNNFYPREAKVQWKVDNALQSGNSQESVTEQDSKDSTYSLSSTLTLSKADYEKHKVYACEVTHQGLSSPVTKSFNRGEC
notes: as for B2
B9: the binding result is listed as “binds”.

B10: hu3G8VH-18/hu3G8VL-1 (antibody)
VH: QVTLRESGPALVKPTQTLTLTCTFSGFSLSTSGMGVGWIRQPPGKALEWLAHIWWDDDKRYNPALKSRLTISKDTSKNQVVLTMTNMDPVDTATYYCAHINPAWFAYWGQGTLVTVSS
light: DIVMTQSPDSLAVSLGERATINCKASQSVDFDGDSFMNWYQQKPGQPPKLLIYTTSNLESGVPDRFSGSGSGTDFTLTISSLQAEDVAVYYCQQSNEDPYTFGQGTKLEIKRTVAAPSVFIFPPSDEQLKSGTASVVCLLNNFYPREAKVQWKVDNALQSGNSQESVTEQDSKDSTYSLSSTLTLSKADYEKHKVYACEVTHQGLSSPVTKSFNRGEC
notes: as for B2
In the case of B10, the binding result is recorded as “binds”.

B11: hu3G8VH-5/hu3G8VL-1 (antibody)
VH: QVTLRESGPALVKPTQTLTLTCTFSGFSLSTSGMGVGWIRQPPGKALEWLAHIWWDDDKRYNPALKSRLTISKDTSKNQVVLTMTNMDPVDTATYYCAQINPAWFAYWGQGTLVTVSS
light: DIVMTQSPDSLAVSLGERATINCKASQSVDFDGDSFMNWYQQKPGQPPKLLIYTTSNLESGVPDRFSGSGSGTDFTLTISSLQAEDVAVYYCQQSNEDPYTFGQGTKLEIKRTVAAPSVFIFPPSDEQLKSGTASVVCLLNNFYPREAKVQWKVDNALQSGNSQESVTEQDSKDSTYSLSSTLTLSKADYEKHKVYACEVTHQGLSSPVTKSFNRGEC
notes: VH fused to human Cγ1 constant region (glycosylated form); also called Hu3G8-5.1
For the molecule B11, the binding result is “binds”.

B12: hu3G8VH-14/hu3G8VL-1 (antibody)
VH: QVTLRESGPALVKPTQTLTLTCTFSGFSLSTSGMGVGWIRQPPGKALEWLAHIWWNDDKRYNPALKSRLTISKDTSKNQVVLTMTNMDPVDTATYYCARINPAWFAYWGQGTLVTVSS
light: DIVMTQSPDSLAVSLGERATINCKASQSVDFDGDSFMNWYQQKPGQPPKLLIYTTSNLESGVPDRFSGSGSGTDFTLTISSLQAEDVAVYYCQQSNEDPYTFGQGTKLEIKRTVAAPSVFIFPPSDEQLKSGTASVVCLLNNFYPREAKVQWKVDNALQSGNSQESVTEQDSKDSTYSLSSTLTLSKADYEKHKVYACEVTHQGLSSPVTKSFNRGEC
notes: as for B2
For the molecule B12, the binding result is “binds”.

B13: hu3G8VH-6/hu3G8VL-1 (antibody)
VH: QVTLRESGPALVKPTQTLTLTCTFSGFSLSTSGVGVGWIRQPPGKALEWLAHIWWDDDKRYNPALKSRLTISKDTSKNQVVLTMTNMDPVDTATYYCARINPAWFDYWGQGTLVTVSS
light: DIVMTQSPDSLAVSLGERATINCKASQSVDFDGDSFMNWYQQKPGQPPKLLIYTTSNLESGVPDRFSGSGSGTDFTLTISSLQAEDVAVYYCQQSNEDPYTFGQGTKLEIKRTVAAPSVFIFPPSDEQLKSGTASVVCLLNNFYPREAKVQWKVDNALQSGNSQESVTEQDSKDSTYSLSSTLTLSKADYEKHKVYACEVTHQGLSSPVTKSFNRGEC
notes: as for B2
For B13, the binding result is on record as “binds”.

B14: hu3G8VH-17/hu3G8VL-1 (antibody)
VH: QVTLRESGPALVKPTQTLTLTCTFSGFSLSTSGMGVGWIRQPPGKALEWLAHIWWDDDKRYNPALKSRLTISKDTSKNQVVLTMTNMDPVDTATYYCAAINPAWFAYWGQGTLVTVSS
light: DIVMTQSPDSLAVSLGERATINCKASQSVDFDGDSFMNWYQQKPGQPPKLLIYTTSNLESGVPDRFSGSGSGTDFTLTISSLQAEDVAVYYCQQSNEDPYTFGQGTKLEIKRTVAAPSVFIFPPSDEQLKSGTASVVCLLNNFYPREAKVQWKVDNALQSGNSQESVTEQDSKDSTYSLSSTLTLSKADYEKHKVYACEVTHQGLSSPVTKSFNRGEC
notes: as for B2
For B14, the binding result is “binds”.

B15: hu3G8VH-16/hu3G8VL-1 (antibody)
VH: QVTLRESGPALVKPTQTLTLTCTFSGFSLSTSGMGVGWIRQPPGKALEWLAHIWWDDDKRYNPALKSRLTISKDTSKNQVVLTMTNMDPVDTATYYCAKINPAWFAYWGQGTLVTVSS
light: DIVMTQSPDSLAVSLGERATINCKASQSVDFDGDSFMNWYQQKPGQPPKLLIYTTSNLESGVPDRFSGSGSGTDFTLTISSLQAEDVAVYYCQQSNEDPYTFGQGTKLEIKRTVAAPSVFIFPPSDEQLKSGTASVVCLLNNFYPREAKVQWKVDNALQSGNSQESVTEQDSKDSTYSLSSTLTLSKADYEKHKVYACEVTHQGLSSPVTKSFNRGEC
notes: as for B2
Regarding B15, the binding result is on record as “binds”.
